The values below come from US20170152308A1 (Biogen, published 2017).

No end group written: not given here.

The target in one experiment is T1, BSA (bovine, UniProt P02769).
T1 construct: control coating in the EC50 ELISA; also called bovine serum albumin (Sigma, Buchs, Switzerland)
The experiment is described as follows: direct ELISA, BSA coated at 5 ug/ml as control, OD 450. As for the experimental part: To determine the half maximal effective concentration (EC₅₀) of the human-derived TDP-43-specific antibodies for human TDP-43 and to evaluate target-specificity, 96 well microplates (Corning) were coated with recombinant full length TDP-43 (Biogen Idec, USA), Escherichia coli extract and BSA (Sigma, Buchs, Switzerland), diluted to a concentration of 5 μg/ml in carbonate ELISA coating buffer (pH 9.6) overnight at 4° C. […] Non-specific binding sites were blocked for 1 hr. at room temperature with PBS containing 2% BSA (Sigma, Buchs, Switzerland). Human TDP-43-specific antibodies were diluted to the indicated concentrations and incubated 1 hr. at room temperature. Binding was determined using a donkey anti-human IgGγ-specific secondary antibody conjugated with HRP (Jackson ImmunoResearch, USA), followed by measurement of HRP activity in a standard colorimetric assay. EC₅₀ values were estimated by a non-linear regression using GraphPad Prism software (San Diego, USA).
The half maximal effective concentration (EC₅₀) of the human-derived TDP-43-specific antibodies for human TDP-43 and their target target-specificity was determined substantially as described in Example 2 above. […]
(In general: ELISA stands for enzyme-linked immunosorbent assay.)

For experiment [1], the target named is T2, synthetic biotinylated peptide TDP-43 316-343 (human, biotinylated (site not stated)).
T2 construct: On streptavidin-coated plates
T2 peptide: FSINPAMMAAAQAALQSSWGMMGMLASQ
The experiment is described as follows: direct ELISA, biotinylated peptide on streptavidin plate.

Experiment [2] has as its target T3, synthetic biotinylated peptide TDP-43 316-333 (human, also: biotinylated (site not given here)).
T3 construct: On streptavidin-coated plates
T3 peptide: FSINPAMMAAAQAALQSS
The experiment is described as above.

Experiment [3] concerns the target T4, synthetic biotinylated peptide TDP-43 316-353 (human, biotinylated (site not stated)).
T4 construct: On streptavidin-coated plates
T4 peptide: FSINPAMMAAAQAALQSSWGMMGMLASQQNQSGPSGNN
Described as above.

The target in experiment [4] is T5, 6xHis-SUMO-TDP-43 (220-414) (human, UniProt Q13148 220-414).
T5 construct: Captured on the plate by an anti-6xHis antibody; also called 6xHis/SUMO tagged truncated TDP-43; not shown: N-terminal 6xHis and SUMO tags from a modified pET19-b vector
The experiment is described as follows: capture ELISA, antigen held by anti-6xHis antibody. Put shortly: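 Anti-6×His antibody captured 6×His-SUMO-TDP-43 (1.7 μM, 1 hr RT) in PBS with 1% BSA, 300 mM arginine and 0.1% PEG 5000, pH 7.5, avoiding direct adsorption. Three-fold antibody titrations were incubated 1 hr RT and detected with HRP anti-human IgG Fc colorimetrically. EC₅₀ from a four-parameter logistic fit.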

Experiment [5] addresses T6, His-huTDP-43 domain I (amino acid residues 2-106) (human).
T6 construct: Amino terminal His-tagged fragment, E. coli; also called N-terminal domain
T6 chain: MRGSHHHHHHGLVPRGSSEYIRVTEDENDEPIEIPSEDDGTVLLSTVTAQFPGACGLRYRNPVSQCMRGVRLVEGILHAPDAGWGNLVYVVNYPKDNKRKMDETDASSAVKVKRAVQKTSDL
The experiment is described as follows: direct ELISA, TDP-43 fragments coated at 6.6 ug/ml, OD 450. As for the experimental part: Non-specific binding sites were blocked for 1 hr. at room temperature with PBST containing 2% BSA (Sigma, Buchs, Switzerland). Antibodies were incubated 1 hr. at room temperature. Binding was determined using either a donkey anti-human IgGγ-specific antibody conjugated with HRP (Jackson ImmunoResearch, USA) or a goat-anti mouse IgG (H+L)-specific secondary antibody conjugated with HRP (Jackson ImmunoResearch, USA)., followed by measurement of HRP activity in a standard colorimetric assay.

Experiment [6] addresses T7, mutant TDP-43 domain IV (TDP-43 258-414 AMM321GGG) (human, UniProt Q13148 258-414).
T7 construct: Recombinant
T7 chain: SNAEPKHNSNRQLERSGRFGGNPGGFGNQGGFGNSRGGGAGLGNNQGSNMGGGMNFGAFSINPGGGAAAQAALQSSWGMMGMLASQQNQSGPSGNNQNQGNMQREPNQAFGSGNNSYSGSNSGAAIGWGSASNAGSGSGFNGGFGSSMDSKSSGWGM
The experiment is described as follows: direct ELISA, coated antigen.

In experiment [7] the target is T8, TDP-43 C terminal fragment 340-414 (human, UniProt Q13148 340-414).
T8 construct: Recombinant fragment
The experiment is described as follows: direct ELISA, coated fragments.

Experiment [8] concerns the target T9, TDP-43 C terminal fragment 258-319 (human, UniProt Q13148 258-319).
T9 construct: Recombinant fragment
Put plainly: direct ELISA, coated fragments.

T1 sequence (P02769 25-607 limits assumed): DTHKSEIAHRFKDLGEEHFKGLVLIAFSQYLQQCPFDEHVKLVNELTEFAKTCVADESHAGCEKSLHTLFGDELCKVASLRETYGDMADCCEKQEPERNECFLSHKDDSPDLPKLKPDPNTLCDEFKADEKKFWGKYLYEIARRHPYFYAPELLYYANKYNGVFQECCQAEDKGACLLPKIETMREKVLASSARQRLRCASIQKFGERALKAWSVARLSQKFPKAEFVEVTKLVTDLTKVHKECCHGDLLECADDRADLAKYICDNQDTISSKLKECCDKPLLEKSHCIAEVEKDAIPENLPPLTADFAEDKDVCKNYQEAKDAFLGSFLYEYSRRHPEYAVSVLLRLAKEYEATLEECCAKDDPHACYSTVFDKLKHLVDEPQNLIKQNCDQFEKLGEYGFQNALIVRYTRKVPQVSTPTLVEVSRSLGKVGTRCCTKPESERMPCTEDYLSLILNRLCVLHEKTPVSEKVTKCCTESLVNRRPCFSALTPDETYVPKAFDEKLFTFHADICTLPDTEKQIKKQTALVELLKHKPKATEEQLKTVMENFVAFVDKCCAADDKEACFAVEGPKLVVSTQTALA

B1: NI-205.41D1 (antibody, human IgG1, V domains shown)
VH: EVQLVESGGGLVQPGGSLRLSCAASGFTFSTYYMSWVRQAPGKGLEWVANIKQDGSEKYYVDSVKGRFTISRDNARNSLYLQMHSLRAEDTAVYYCASPPGWWGQGTLVTVSS
VL: DIVMTQTPLSLSVTPGQPASISCKSSQSLLHSDGKTYLYWYLQKPGQPPQLLIYEVSNRFSGVPDRFSGSGSGTDFTLKISRVEAEDVGVYYCMQSIQLPVTFGGGTKVEIK
notes: Human-derived; also called NI-41D1
Turning to B1, the binding result in the experiment with BSA was “no binding (tested: about 4x10^5 pM)”; in experiment [1] it was “binds”; in experiment [2], “no binding”; in experiment [3] it was “binds”; in experiment [5], “no binding”; in [6] it was “no binding”. For the same molecule, the binding result in experiment [7] and in [8] was “no binding” throughout. Also, the EC50 (usually the concentration at which the effect is half-maximal) in experiment [4] was found to be 0.1 nM.
